# In article PMC4592220, “Geminivirus Activates [sequence] LEAVES 2 to Accelerate Cytoplasmic DCP2-Mediated mRNA Turnover and Weakens RNA Silencing in Arabidopsis” (PLoS Pathogens, 2015):
# B1: His-AS2 (… LEAVES 2) (natural protein)
# chain: MASSSTNSPCAACKFLRRKCQPECVFAPYFPPDQPQKFANVHKVFGASNVTKLLNELHPSQREDAVNSLAYEADMRLRDPVYGCVGVISLLQHQLRQLQIDLSCAKSELSKYQSLGILAATHQSLGINLLAGAADGTATAVRDHYHHHQFFPREQMFGGLDVPAGNNYDGGILAIGQITQFQQPRAAAGDDGRRTVDPS
# notes: full-length cDNA; The methods say the yeast SUMO tag was used to improve AS2 solubility; also called WT AS2
# B2: GST-AS2 (… LEAVES 2) (natural protein)
# chain: B1 chain
# notes: full-length cDNA
# Legend:
# GST-AS2 (… LEAVES 2) = biological target: B2; test: pull-down; 2 ug of GST/MBP/His/His-SUMO fusion proteins; binding buffer 50 mM Tris-HCl pH 7.5, 100 mM NaCl, 0.25% Triton X-100, 35 mM beta-mercaptoethanol, 2 h at 4 C, then glutathione sepharose 4B overnight; 6 washes; Western blot with anti-His, anti-GST or anti-MBP; settings: both partners purified
# DCP2, recombinant = biological target: T1, DCP2, recombinant (Arabidopsis thaliana, UniProt Q8GW31 1-373); test: as above; settings: both partners purified
# T1 construct: mRNA decapping enzyme DCP2, Arabidopsis; full-length cDNA
# T1 sequence: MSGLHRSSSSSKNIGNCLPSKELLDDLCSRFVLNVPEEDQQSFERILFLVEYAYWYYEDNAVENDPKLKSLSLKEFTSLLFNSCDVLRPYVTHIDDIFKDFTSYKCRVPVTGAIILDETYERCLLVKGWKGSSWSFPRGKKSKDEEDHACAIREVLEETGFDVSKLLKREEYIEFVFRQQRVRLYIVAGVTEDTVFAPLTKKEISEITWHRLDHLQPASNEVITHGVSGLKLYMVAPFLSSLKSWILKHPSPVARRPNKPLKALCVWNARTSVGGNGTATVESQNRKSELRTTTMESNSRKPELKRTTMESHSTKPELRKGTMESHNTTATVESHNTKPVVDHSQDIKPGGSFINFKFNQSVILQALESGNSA
Binder,binding result (GST-AS2 (… LEAVES 2)),"binding result (DCP2, recombinant)"
B1,binds,
B2,,binds
